The RNAGym collection of RNA variant scans (doi:10.1073/pnas.2313332121)
Fewer inactive variants are shown than the library holds.

B1: TPR 5TU (parent)
chain: GGAUCUUCUCGAUCUAACAAAAAAGACAAAUCUGCCACAAAGCUUGAGAGCAUCUUCGGAUGCAGAGGCGGCAGCCUUCGGUGGCGCGAUAGCGCCAACGUUCUCAACUAUGACACGCAAAACGCGUGCUCCGUUGAAUGGAGUUUAUCAUG

Variants of: B1
Test: polymerase ribozyme fitness, log enrichment relative to wild type (log ratio); higher = more active; in vitro selection for triplet polymerase activity
Procedure, shortened: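 After PCR construction and transcription, each subunit's mutant library from a heterodimeric triplet polymerase ribozyme was annealed with a biotinylated primer, the partner subunit and triplets. Incubation was frozen, at −7 °C, and extended constructs were gel-excised, bound to streptavidin beads and amplified by RT-PCR, in one selection round done in triplicate. Fitness is the logarithm of a genotype's enrichment divided by that of the wild type, from inverse-variance-weighted replicate averages of Illumina-sequenced inputs and outputs. The base of the logarithm is 2, and genotypes needed ≥10 input reads and ≥1 read per output.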

Variant	polymerase ribozyme fitness (log ratio)
A20U G34C C96G	≤ -4.2
U55A G84A A121U	-1.24
A49C G83C C95G U101A	≤ -4.2
C75U G83A	-0.0803
A12G C75G A119C	-3.34
C125G U134A G140A	≤ -4.2
C51A C99U	-1.63
C5G A21U G59A	-0.0281
U9A C27U C72U	≤ -4.2
C38U A89U C114U	-2.12
C27A U134G U139A	≤ -4.2
C103A G141U	-3.08
U55G G92U G117A A121U A122U U151G	≤ -4.2
A16U U31C C35U A37C C76G C105G G117A	≤ -4.2
U13C C43A A73C G92U	≤ -4.2
A37C C99U C118U G143A U144A	-3.39
U82A C95U	-0.587
C5G G48A U61A C99G C132G G133U A142C	≤ -4.2
C27G U44G G58C G71C C93G G94A U101A U102A	≤ -4.2
G84A G94C	-1.72
C35G U55A C85A A113C	-3.96

Variant	polymerase ribozyme fitness (log ratio)
C27U U53A G70U	-3.43
C51U G67C U135C	≤ -4.2
U82C C131G	-2.45
U15A U56A G70A	-4.2
A47U A64G A138C U144C	≤ -4.2
A97G C99U A142G	-1.1
C8A G141A	-3.13
U6G C10G G68A C69U G84A	≤ -4.2
G71C C79U A91C U135G	≤ -4.2
A24U U61A C93U U101C	-3.93
U82C C95U	-1.92
C85A U104A A115G	-3.42
G11C A19C G70U G86A A89U A106G G136C	≤ -4.2
U15G A24U U145G A147C	-3.02
A22C G86A U101A G141A A142G	≤ -4.2
A24C G48C C118G	≤ -4.2
U101G U145G	-0.0241
A16G A24U A73U	-2.25
A26G G68A C85G A120C	≤ -4.2
U53A G86U	-2.14
G59U A73G G86A C87U A138U A150G	≤ -4.2

Variant	polymerase ribozyme fitness (log ratio)
A17C A73G C76G U82C C85G	≤ -4.2
A37U G71A C125A	≤ -4.2
C8U A21U A28C A52U G94U C95G A97C A122U G126U G136A	≤ -4.2
A19C G50C A52G	-2.64
C35A C51U G59C A64G G83A	≤ -4.2
A60G C93A	-2.81
A47C G136A	0.0265
U6G A142U	-0.0461
A28C G124C	≤ -4.2
C93U C96G	-1.58
A19C C35A	-3.08
A26G C35U A37U C76A U78A	≤ -4.2
A30C G50C G65A G84A U109G A142U	≤ -4.2
G59C G141U	-0.299
C76A A91G A120G	-3.67
G68U C85U	≤ -4.2
C38U U56A A120G G126U U145C U146G	-3.34
U53A G86U A142U	≤ -4.2
C36U A52U U53C C79U A91U U135A	≤ -4.2
A19C C96U G124C	-0.582
C14U A19U G84A	-0.945

Variant	polymerase ribozyme fitness (log ratio)
G81C C87U G100C G117A G126C	≤ -4.2
U4C C69G G141U A147U	-1.91
A28U C95U C99U C118A	≤ -4.2
C5G A37U G83C C129A U145A	≤ -4.2
C35G C76G A89G	-3.96
C69A U134G	-3.35
C63G C125G U145C A150C	≤ -4.2
A39G G70C G92C U135G U145G U148A	≤ -4.2
A29U G112C A121G G136U A137G U145A	≤ -4.2
A41G A52G C69U C93U G94C U146C	-2.71
G50A C54A C87A G128A	≤ -4.2
G84U C116G	-1.58
C27G A28U G81C G141A	≤ -4.2
C14A G141U	-0.0158
A3U C18G A21U C57U C85U G94A A121U	-1.04
C5G G46C G50C C129U U134C C149U	≤ -4.2
C54U C93A	-2.6
A17U A28G G86C A106C C116A A119U	≤ -4.2
U90A C95A	≤ -4.2
U53A U55A C129U	-3.06
